# Measured values: paper PMC4729467, “Kinetic Characterization of 100 Glycoside Hydrolase Mutants Enables the Discovery of Structural Features Correlated with Kinetic Constants” (PLoS ONE, 2016)
# Substitutions are numbered along the chain they refer to. In names and notes the source's numbering stands.
# B1: β-glucosidase B (BglB) (Paenibacillus polymyxa) (protein)
# chain: MSENTFIFPATFMWGTSTSSYQIEGGTDEGGRTPSIWDTFCQIPGKVIGGDCGDVACDHFHHFKEDVQLMKQLGFLHYRFSVAWPRIMPAAGIINEEGLLFYEHLLDEIELAGLIPMLTLYHWDLPQWIEDEGGWTQRETIQHFKTYASVIMDRFGERINWWNTINEPYCASILGYGTGEHAPGHENWREAFTAAHHILMCHGIASNLHKEKGLTGKIGITLNMEHVDAASERPEDVAAAIRRDGFINRWFAEPLFNGKYPEDMVEWYGTYLNGLDFVQPGDMELIQQPGDFLGINYYTRSIIRSTNDASLLQVEQVHMEEPVTDMGWEIHPESFYKLLTRIEKDFSKGLPILITENGAAMRDELVNGQIEDTGRHGYIEEHLKACHRFIEEGGQLKGYFVWSFLDNFEWAWGYSKRFGIVHINYETQERTPKQSALWFKQMMAKNGF
# B2: β-glucosidase B (BglB) (Paenibacillus polymyxa; R243A) (protein)
# chain: B1 chain with R243A
# B3: β-glucosidase B (BglB) (Paenibacillus polymyxa; E225A) (protein)
# chain: B1 chain with E225A
# Substrate: O=[N+]([O-])c1ccc(O[C@@H]2O[C@H](CO)[C@@H](O)[C@H](O)[C@H]2O)cc1
# Test: purified protein
# [1] = enzyme storage buffer (HEPES elution buffer), ten biological replicates
Protein,Km [1] [mM],kcat [1] [s⁻¹],Km (enzyme storage buffer) [mM],kcat (enzyme storage buffer) [s⁻¹],kcat/Km (enzyme storage buffer) [M⁻¹ s⁻¹]
B1,5.0 ± 0.2,14.7 ± 0.167,–,–,–
B2,–,–,19.46 ± 1.17,184,9430 ± 606
B3,–,–,0.63 ± 0.15,1.5,2390 ± 602
